# Results as given in US6136558A, “Heregulin variants” (Genentech, Inc., priority 1998, dated 2000).
# Ends that are not written are not given here.
# What was measured:
# [1] = target: ErbB-3 receptor-Ig fusion (human) (UniProt P21860); assay: phage ELISA, ratio to wild-type HRG-β1 177-244 on phage
# [2] = target: ErbB-4 receptor-Ig fusion (human) (UniProt Q15303); assay: phage ELISA, ratio to wild-type HRG-β1 177-244 on phage; clone selected on ErbB-4-Ig
# [3] = target: ErbB-2/3 receptor-Ig fusion (ErbB-2/3-Ig); assay: Phage ELISA, competition with soluble ErbB-2/3-Ig; type: binding; conditions: EGF-like domain displayed monovalently on phage as pIII fusion; soluble ErbB-2/3-Ig competing half of the phage off the plate; average of duplicate experiments
# Description: (§1) To produce phage displaying the domains, mutagenesis reaction mixtures were electrotransformed into XL1-Blue™ cells (Stratagene, Inc., La Jolla, Calif.), according to the manufacturer's protocol. The transformed cells were then infected with 10^11 plaque-forming units (pfu) M13K07 helper phage (Promega Corp., Madison, Wis.). […] The phage were resuspended in phosphate-buffered saline (PBS: 0.01 M sodium phosphate, 0.1 M NaCl, pH 7.5).
# (§2) Microtiter plates (Nunc Maxisorp™ 96-well plates, Inter Med, Denmark) for phage ELISA were prepared as follows. The wells were precoated overnight with 0.5 μg of rabbit anti-human IgG (Fc gamma fragment-specific) antibodies (Jackson Immunoresearch, West Grove, Pa.) in 100 μL 50 mM NaCO3 (pH 9.6). The wells were blocked for 30 minutes (min) with 200 μL PBS containing 0.1% bovine serum albumin (BSA) and rinsed with wash buffer (PBS containing 0.05% Tween 20™). The wells were then coated with 0.1 μg ErbB-2/3-Ig in binding buffer (PBS, 0.1% BSA, 0.05% Tween 20™) for 1 h, and washed again.
# (§3) Following incubation for 2 h at room temperature, plates were washed extensively and treated with a 1:900 dilution of anti-M13 horseradish peroxidase conjugate (Pharmacia, Piscataway, N.J.) for 20 min. The amount of phage binding was determined by assaying horseradish peroxidase activity using o-phenylenediamine dihydrochloride) substrate solution (Sigma Chemical Company, St. Louis, Mo.).
# [4] = target: ErbB-4 receptor-Ig fusion (human) (UniProt Q15303); assay: phage ELISA, ratio to wild-type HRG-β1 177-244 on phage; clone selected on ErbB-4-Ig with ErbB-3-Ig counter-selection
# ErbB-4-Ig [5] = assay: Phage ELISA, binding to ErbB-4-Ig
# Description: as §1, §2, §3
# (§4) Alanine-substituted variants were generated by site-directed mutagenesis according to Kunkel et al., Methods Enzymol. […] A series of oligonucleotides was used to generate a series of constructs that expressed a series of variants in which consecutive residues were mutated to alanine.
# (§5) In addition, phagemid vectors for use in producing phage displaying mutated HRG-β1 EGFs containing various combinations of the above mutations ("combination variants") were prepared by Kunkel mutagenesis, using templates prepared from several of the above-described variants. […] Some of the variants and combination variants were also tested for relative ErbB-4-Ig affinity to assess specificity.
# (§6) The affinities of the variants for ErbB-3-Ig and ErbB-4-Ig were determined to assess specificity.
# ErbB-3-Ig [6] = assay: Phage ELISA, binding to ErbB-3-Ig
# Description: as §1, §2, §3, §4, §5, §6
# ErbB-4-Ig [7] = assay: Inhibition of 125I-HRG-β1 177-244 binding to ErbB-4-Ig by soluble protein
# Procedure: (§7) The affinities of the Trx-variant fusions for ErbB receptor-Ig fusions were determined by measuring inhibition of ^125 I-HRG-β1 177-244 binding to ErbB-3-Ig and ErbB-4-Ig. Receptor fusions were coated on plates (Nunc Maxisorp C™ break-apart strip wells, Inter Med, Denmark) via anti-human IgG, as described in Example 1 for phage ELISA. Binding assays were carried out with a constant amount of ^125 I-HRG-β1 177-244 (100-300 pM) and varying concentrations (100 pM-4 μM) of unlabeled Trx-variant fusion. Following incubation for 1-3 h at room temperature, plates were washed, and the amount of bound ^125 I-HRG-β1 177-244 in each well was counted on a gamma counter (Isodata, ICN Biomedic Systems, Huntsville, Ala.). For the ErbB-3 binding assays, the blocking buffer was TBST (0.025 M Tris-HC1 [pH 7.5], 0.15 M NaCl, 0.02% Tween 20™) containing 1% BSA; the binding buffer was RPMI 1640™ cell culture media (Gibco-BRL, Gaithersburg, Md.) containing 2 mM glutamine, 100 U/mL penicillin, 100 μg/mL streptomycin, 10 mM HEPES buffer (pH 7.2), 0.2% BSA; and the wash buffer was TBST. For the ErbB-4 binding assays, PBS containing 1% BSA was used as the blocking and binding buffers, and the wash buffer was PBS containing 0.05% Tween 20™.
# ErbB-3-Ig [8] = assay: Inhibition of 125I-HRG-β1 177-244 binding to ErbB-3-Ig by soluble protein
# Procedure: as §7
# [9] = target: ErbB-4 receptor-Ig fusion (human) (UniProt Q15303); assay: phage ELISA, soluble ErbB-4-Ig as competitor
# [10] = target: ErbB-3 receptor-Ig fusion (human) (UniProt P21860); assay: phage ELISA, soluble ErbB-3-Ig as competitor
# [11] = target: ErbB-4 receptor-Ig fusion (human) (UniProt Q15303); assay: phage ELISA, soluble ErbB-4-Ig as competitor; remark: listed apart in the source
# [12] = target: ErbB-2/3 receptor-Ig fusion (human) (UniProt P04626); assay: phage ELISA, soluble ErbB-2/3-Ig as competitor
# [13] = target: ErbB-4 receptor-Ig fusion (human) (UniProt Q15303); assay: phage ELISA, ratio to wild-type HRG8 phage
# [14] = target: ErbB-3 receptor-Ig fusion (human) (UniProt P21860); assay: phage ELISA, ratio to wild-type HRG8 phage
# [15] = target: ErbB-4 receptor-Ig fusion (human) (UniProt Q15303); assay: displacement of 125I-HRG-β1 177-244 from ErbB-4-Ig
# [16] = target: ErbB-3 receptor-Ig fusion (human) (UniProt P21860); assay: displacement of 125I-HRG-β1 177-244 from ErbB-3-Ig
# [17] = phage ELISA, relative to wild-type HRG-β1 EGF phage in same run, above 1 = higher affinity than wild-type
# [18] = soluble HRG-β1 EGF variant free of pIII, inhibition of 125I-HRG binding, read-out: ErbB-4-Ig EC50
# [19] = soluble HRG-β1 EGF variant free of pIII, inhibition of 125I-HRG binding, read-out: ErbB-3-Ig EC50
# [20] = soluble thioredoxin (Trx) fusion, inhibition of 125I-HRG-β1 177-244 binding, read-out: Sol EC50, binding to the ErbB-4 Receptor
# [21] = soluble thioredoxin (Trx) fusion, inhibition of 125I-HRG-β1 177-244 binding, read-out: Sol EC50, binding to the ErbB-3 Receptor
molecule,measurement,setting,value
HRG-β1 177-244 H178E on phage (ligand),EC50 Mut/Wt,[1],9.5
same,EC50 Mut/Wt,[2],1.7
HRG-β1 177-244 L179M on phage (ligand),EC50 Mut/Wt,[1],1.2
same,EC50 Mut/Wt,[2],1.5
HRG7: HRG-β1 177-228 fused to pIII 247 (SHLVKCAEKEKTFCVNGGECFMVKDLSNPSRYLCKCPNEFTGDRCQNYVMAS; cysteine pairing not given here; also: fused to pIII 247),EC50,[3],0.042 µM
HRG-β1 177-244 R207P on phage (ligand),EC50 Mut/Wt,[1],6.1
same,EC50 Mut/Wt,[4],1.3
HRG-β1 177-244 L179V on phage (ligand),EC50 Mut/Wt,[1],1.5
same,EC50 Mut/Wt,[2],1.6
HRG-β1 177-244 H178L on phage (ligand),EC50 Mut/Wt,[1],1.4
same,EC50 Mut/Wt,[4],1.2
"G1: K211R, P213S, N214L (SHLVKCAEKEKTFCVNGGECFMVKDLSNPSRYLCRCSLEFTGDRCQNYVMAS)",Phage ErbB-4 EC50 (wt)/EC50 (mut),ErbB-4-Ig [5]; [17],1.6
same,Phage ErbB-3 EC50 (wt)/EC50 (mut),ErbB-3-Ig [6]; [17],1.2 ± 0.36
F1: single library F variant: Met198Lys and Met226Ile,EC50,ErbB-4-Ig [7]; [18],0.00026 ± 1.1e-05 µM
same,EC50,ErbB-3-Ig [8]; [19],0.0006 ± 4e-05 µM
"A3: HRG-β1 EGF: S177W, H178E, K181P",EC50,ErbB-4-Ig [7]; [18],0.0021 ± 0.0001 µM
same,EC50,ErbB-3-Ig [8]; [19],0.0043 ± 0.0002 µM
"HRG-β1 177-244 H178L with Met in place of 228-231, on phage (ligand)",EC50 Mut/Wt,[1],6.4
same,EC50 Mut/Wt,[4],1.7
HRG-β1 177-244 H178T L179M on phage (ligand),EC50 Mut/Wt,[1],1.4
same,EC50 Mut/Wt,[4],1.6
HRG-β1 177-244 E215A on phage (ligand),EC50,[9],0.032 µM
same,EC50,[10],0.051 µM
HRG-β1 177-244 H178E L179V on phage (ligand),EC50 Mut/Wt,[1],0.8
same,EC50 Mut/Wt,[4],1.7
HRG-β1 177-244 F189A on phage (ligand),EC50,[9],0.106 µM
same,EC50,[10],0.892 µM
HRG-β1 177-244 S177A on phage (ligand),EC50,[9],0.083 µM
same,EC50,[10],0.067 µM
HRG-β1 177-244 R207A on phage (ligand),EC50,[9],0.03 µM
same,EC50,[10],> 1 µM
HRG6: HRG-β1 177-227 fused to pIII 247 (SHLVKCAEKEKTFCVNGGECFMVKDLSNPSRYLCKCPNEFTGDRCQNYVMA; cysteine pairing not given here; also: fused to pIII 247),EC50,[3],0.04 µM
HRG-β1 177-244 H178D L179V on phage (ligand),EC50 Mut/Wt,[1],2.2
same,EC50 Mut/Wt,[4],2
"HRG-β1 177-244 H178W with Met in place of 228-231, on phage (ligand)",EC50 Mut/Wt,[1],1.2
same,EC50 Mut/Wt,[2],1.7
HRG2 (HRG-β1 177-244 displayed on phage) (ligand) SHLVKCAEKEKTFCVNGGECFMVKDLSNPSRYLCKCPNEFTGDRCQNYVMASFYKHLGIEFMEAEELY,EC50,[11],0.019 µM
same,EC50,[12],0.006 µM
same,EC50,[10],0.013 µM
B3 (phage) (ligand) SHLVKCGEEREGFCVNGGECFMVKDLSNPSRYLCKCPNEFTGDRCQNYVMAS,EC50(wt)/EC50(mut),[13],1.7
same,EC50(wt)/EC50(mut),[14],4.7
D4 (phage) (ligand) SHLVKCAEKEKTFCVNGGECYRVKTLSNPSRYLCKCPNEFTGDRCQNYVMAS,EC50(wt)/EC50(mut),[13],5
same,EC50(wt)/EC50(mut),[14],2.9
I2 (phage) (ligand) SHLVKCAEKEKTFCVNGGECFMVKDLSNPSRYLCKCPNEFTGDRCQHYVIAS,EC50(wt)/EC50(mut),[13],10
same,EC50(wt)/EC50(mut),[14],20
TH-WT (thioredoxin fused at its C-terminus to wild-type HRG-β1 146-244) (ligand) DDDDKAYVSSESPIRISVSTEGANTSSSTSTSTTGTSHLVKCAEKEKTFCVNGGECFMVKDLSNPSRYLCKCPNEFTGDRCQNYVMASFYKHLGIEFMEAEELY,EC50,ErbB-4-Ig [7]; [20],0.0154 µM
same,EC50,[15],0.0154 µM
same,EC50,[16],0.0476 µM
same,EC50,ErbB-3-Ig [8]; [21],0.0476 µM
HRG4 (ligand) YVSSESPIRISVSTEGANTSSSTSTSTTGTSHLVKCAEKEKTFCVNGGECFMVKDLSNPSRYLCKCPNEFTGDRCQNYVMA,EC50,[3],0.038 µM
same,EC50,[12],0.038 µM
HRG5 (ligand) YVSSESPIRISVSTEGANTSSSTSTSTTGTSHLVKCAEKEKTFCVNGGECFMVKDLSNPSRYLCKCPNEFTGDRCQNYVMASFYKHLGIEFMEAEELY,EC50,[3],0.0047 µM
same,EC50,[12],0.0047 µM
HRG6 (ligand) SHLVKCAEKEKTFCVNGGECFMVKDLSNPSRYLCKCPNEFTGDRCQNYVMA,EC50,[12],0.04 µM
HRG7 (ligand) SHLVKCAEKEKTFCVNGGECFMVKDLSNPSRYLCKCPNEFTGDRCQNYVMAS,EC50,[12],0.042 µM
HRG11 (ligand) SHLVKCAEKEKTFCVNGGECFMVKDLSNPSRYLCKCPNEFTGDRCQNYVMASFYGGGSGGG,EC50,[12],0.019 µM
"HRG11: HRG-β1 177-230 attached to pIII 247 through GGGSGGG linkage (protein, also: attached to pIII 247 through GGGSGGG linkage, HRG-β1 177-230 attached to pIII 247 through GGGSGGG linkage) SHLVKCAEKEKTFCVNGGECFMVKDLSNPSRYLCKCPNEFTGDRCQNYVMASFYGGGSGGG",EC50,[3],0.019 µM
"HRG-β1: recombinantly produced HRGβ1 177-244 (wild-type) (protein, ends and bridges not checked) SHLVKCAEKEKTFCVNGGECFMVKDLSNPSRYLCKCPNEFTGDRCQNYVMASFYKHLGIEFMEAEELY",EC50,ErbB-4-Ig [7]; [20],0.0148 µM
same,EC50,"ErbB-4-Ig [5]; alanine-substituted HRG-β1 177-244 displayed on phage, read-out: Phage EC50, binding to the ErbB-4 Receptor",0.019 µM
same,EC50,"ErbB-3-Ig [6]; alanine-substituted HRG-β1 177-244 displayed on phage, read-out: Phage EC50, binding to the ErbB-3 Receptor",0.013 µM
same,EC50,ErbB-3-Ig [8]; [21],0.009 µM
